Results reported in patent US20120114682A1 (GEORGIA TECH RESEARCH, published 2012).

Experiments:
[1] = target: Fibrin matrix (clot) (human) (UniProt P02671); experiment: confocal colocalisation, perfused fibrin clot, 20 min
[2] = target: Fibrin matrix (clot) (human) (UniProt P02671); experiment: confocal colocalisation, perfused fibrin clot, 30 min
[3] = target: Fibrin matrix (clot) (human) (UniProt P02671); experiment: confocal colocalisation, perfused fibrin clot, 10 min
[4] = target: Fibrin matrix (clot) (human) (UniProt P02671); experiment: confocal colocalisation, perfused fibrin clot, 0 min

Chain of Fibrin matrix (clot) (human) (P02671 36-629 limits assumed, chain 1 of 2): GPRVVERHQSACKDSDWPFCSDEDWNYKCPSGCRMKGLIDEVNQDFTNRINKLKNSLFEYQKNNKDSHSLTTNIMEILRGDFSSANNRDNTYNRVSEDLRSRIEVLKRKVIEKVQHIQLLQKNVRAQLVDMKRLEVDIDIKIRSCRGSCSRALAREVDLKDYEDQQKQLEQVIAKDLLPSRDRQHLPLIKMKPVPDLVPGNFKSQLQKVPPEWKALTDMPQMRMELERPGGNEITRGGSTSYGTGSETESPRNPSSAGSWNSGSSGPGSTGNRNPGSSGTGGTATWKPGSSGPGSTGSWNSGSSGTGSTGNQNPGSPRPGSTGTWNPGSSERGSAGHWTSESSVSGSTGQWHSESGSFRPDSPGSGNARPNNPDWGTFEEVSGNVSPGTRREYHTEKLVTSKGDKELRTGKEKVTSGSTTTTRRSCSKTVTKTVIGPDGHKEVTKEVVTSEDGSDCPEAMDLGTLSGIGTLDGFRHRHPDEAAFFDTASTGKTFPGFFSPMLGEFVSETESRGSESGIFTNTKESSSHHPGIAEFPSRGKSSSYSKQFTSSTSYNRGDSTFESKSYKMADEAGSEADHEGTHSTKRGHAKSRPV
Chain of Fibrin matrix (clot) (human) (P02679 other isoform, or with tags, fused parts or gaps limits assumed, chain 3 of 2, further chain): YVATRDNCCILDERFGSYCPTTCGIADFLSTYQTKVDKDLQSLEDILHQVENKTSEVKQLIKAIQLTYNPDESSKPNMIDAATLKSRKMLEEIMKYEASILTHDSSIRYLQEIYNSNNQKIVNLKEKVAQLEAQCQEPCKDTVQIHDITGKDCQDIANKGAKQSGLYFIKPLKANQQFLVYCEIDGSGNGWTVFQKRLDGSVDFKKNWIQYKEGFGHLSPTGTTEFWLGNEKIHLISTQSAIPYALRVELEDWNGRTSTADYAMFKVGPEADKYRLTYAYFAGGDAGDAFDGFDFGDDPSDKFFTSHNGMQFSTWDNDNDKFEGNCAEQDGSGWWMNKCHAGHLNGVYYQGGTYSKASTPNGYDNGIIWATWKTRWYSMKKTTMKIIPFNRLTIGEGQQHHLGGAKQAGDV

GPRP-FnIII9-10-AF633 (from UniProt P02751 1448-1631)
Colocalization Coefficient (Fibrin) [1]: 0.219 | Colocalization Coefficient (GPRP-Fn) [1]: 0.948 | Correlation Coefficient (R) [1]: 0.14 | Mean Intensity (GPRP-Fn) [1]: 52 | Relative Area of Colocalization [1]: 19.1% | Colocalization Coefficient (Fibrin) [2]: 0.159 | Colocalization Coefficient (GPRP-Fn) [2]: 0.926 | Correlation Coefficient (R) [2]: 0.11 | Mean Intensity (GPRP-Fn) [2]: 51 | Relative Area of Colocalization [2]: 12.8% | Colocalization Coefficient (Fibrin) [3]: 0.325 | Colocalization Coefficient (GPRP-Fn) [3]: 0.956 | Correlation Coefficient (R) [3]: 0.19 | Mean Intensity (GPRP-Fn) [3]: 55 | Relative Area of Colocalization [3]: 28.5% | Colocalization Coefficient (Fibrin) [4]: 0.981 | Colocalization Coefficient (GPRP-Fn) [4]: 0.965 | Correlation Coefficient (R) [4]: 0.47 | Mean Intensity (GPRP-Fn) [4]: 100 | Relative Area of Colocalization [4]: 94.2%

GSPE-FnIII9-10-AF633 (from UniProt P02751 1448-1631)
Colocalization Coefficient (Fibrin) [1]: 0.003 | Colocalization Coefficient (GSPE-Fn) [1]: 0.0413 | Correlation Coefficient (R) [1]: 0.02 | Mean Intensity (GSPE-Fn) [1]: 44 | Relative Area of Colocalization [1]: 0.1% | Colocalization Coefficient (Fibrin) [2]: 0.003 | Colocalization Coefficient (GSPE-Fn) [2]: 0.377 | Correlation Coefficient (R) [2]: -0.02 | Mean Intensity (GSPE-Fn) [2]: 38 | Relative Area of Colocalization [2]: 0.1% | Colocalization Coefficient (Fibrin) [3]: 0.001 | Colocalization Coefficient (GSPE-Fn) [3]: 0.521 | Correlation Coefficient (R) [3]: -0.06 | Mean Intensity (GSPE-Fn) [3]: 45 | Relative Area of Colocalization [3]: 0% | Colocalization Coefficient (Fibrin) [4]: 0.01 | Colocalization Coefficient (GSPE-Fn) [4]: 0.739 | Correlation Coefficient (R) [4]: 0.04 | Mean Intensity (GSPE-Fn) [4]: 46 | Relative Area of Colocalization [4]: 0.6%
